Article PMC3072145

Columns and labels:
Hfq-65 = Hfq-65 (Escherichia coli, UniProt P0A6X3 1-65, del66-102); experiment: EMSA
Hfq-75 = Hfq-75 (Escherichia coli, UniProt P0A6X3 1-75, del76-102); experiment: EMSA

B1: rA18 (ssRNA)
RNA: AAAAAAAAAAAAAAAAAA
Q: Does B1 bind (Hfq-65)?
A: binds

Q: Does B1 bind (Hfq-75)?
A: binds
